Data from PMC13546301, “Ternary Neurexin-T178-PTPR complexes represent a pre-synaptic core-module of neuronal synapse organization” (Nature Communications, 2026).

Molecular target: T1, V5-tagged PTPRS (UniProt B0V2N1 30-1907)
T1 construct: Receptor-type tyrosine-protein phosphatase S; cDNA GenBank BC083188.1; also called PTPRSV5; source: tsA201 cells, transfected, CL-91-solubilised membrane fraction; not shown: V5, C-terminal, kept
Assay: affinity purification with mass spectrometry; anti-V5 APs from tsA201 cells expressing NRX1A and PTPRS-V5 with or without T178B; normalized abundance of NRX1A by MS, two independent APs with two controls
Conditions: partners not purified

T1 sequence (B0V2N1 30-1907): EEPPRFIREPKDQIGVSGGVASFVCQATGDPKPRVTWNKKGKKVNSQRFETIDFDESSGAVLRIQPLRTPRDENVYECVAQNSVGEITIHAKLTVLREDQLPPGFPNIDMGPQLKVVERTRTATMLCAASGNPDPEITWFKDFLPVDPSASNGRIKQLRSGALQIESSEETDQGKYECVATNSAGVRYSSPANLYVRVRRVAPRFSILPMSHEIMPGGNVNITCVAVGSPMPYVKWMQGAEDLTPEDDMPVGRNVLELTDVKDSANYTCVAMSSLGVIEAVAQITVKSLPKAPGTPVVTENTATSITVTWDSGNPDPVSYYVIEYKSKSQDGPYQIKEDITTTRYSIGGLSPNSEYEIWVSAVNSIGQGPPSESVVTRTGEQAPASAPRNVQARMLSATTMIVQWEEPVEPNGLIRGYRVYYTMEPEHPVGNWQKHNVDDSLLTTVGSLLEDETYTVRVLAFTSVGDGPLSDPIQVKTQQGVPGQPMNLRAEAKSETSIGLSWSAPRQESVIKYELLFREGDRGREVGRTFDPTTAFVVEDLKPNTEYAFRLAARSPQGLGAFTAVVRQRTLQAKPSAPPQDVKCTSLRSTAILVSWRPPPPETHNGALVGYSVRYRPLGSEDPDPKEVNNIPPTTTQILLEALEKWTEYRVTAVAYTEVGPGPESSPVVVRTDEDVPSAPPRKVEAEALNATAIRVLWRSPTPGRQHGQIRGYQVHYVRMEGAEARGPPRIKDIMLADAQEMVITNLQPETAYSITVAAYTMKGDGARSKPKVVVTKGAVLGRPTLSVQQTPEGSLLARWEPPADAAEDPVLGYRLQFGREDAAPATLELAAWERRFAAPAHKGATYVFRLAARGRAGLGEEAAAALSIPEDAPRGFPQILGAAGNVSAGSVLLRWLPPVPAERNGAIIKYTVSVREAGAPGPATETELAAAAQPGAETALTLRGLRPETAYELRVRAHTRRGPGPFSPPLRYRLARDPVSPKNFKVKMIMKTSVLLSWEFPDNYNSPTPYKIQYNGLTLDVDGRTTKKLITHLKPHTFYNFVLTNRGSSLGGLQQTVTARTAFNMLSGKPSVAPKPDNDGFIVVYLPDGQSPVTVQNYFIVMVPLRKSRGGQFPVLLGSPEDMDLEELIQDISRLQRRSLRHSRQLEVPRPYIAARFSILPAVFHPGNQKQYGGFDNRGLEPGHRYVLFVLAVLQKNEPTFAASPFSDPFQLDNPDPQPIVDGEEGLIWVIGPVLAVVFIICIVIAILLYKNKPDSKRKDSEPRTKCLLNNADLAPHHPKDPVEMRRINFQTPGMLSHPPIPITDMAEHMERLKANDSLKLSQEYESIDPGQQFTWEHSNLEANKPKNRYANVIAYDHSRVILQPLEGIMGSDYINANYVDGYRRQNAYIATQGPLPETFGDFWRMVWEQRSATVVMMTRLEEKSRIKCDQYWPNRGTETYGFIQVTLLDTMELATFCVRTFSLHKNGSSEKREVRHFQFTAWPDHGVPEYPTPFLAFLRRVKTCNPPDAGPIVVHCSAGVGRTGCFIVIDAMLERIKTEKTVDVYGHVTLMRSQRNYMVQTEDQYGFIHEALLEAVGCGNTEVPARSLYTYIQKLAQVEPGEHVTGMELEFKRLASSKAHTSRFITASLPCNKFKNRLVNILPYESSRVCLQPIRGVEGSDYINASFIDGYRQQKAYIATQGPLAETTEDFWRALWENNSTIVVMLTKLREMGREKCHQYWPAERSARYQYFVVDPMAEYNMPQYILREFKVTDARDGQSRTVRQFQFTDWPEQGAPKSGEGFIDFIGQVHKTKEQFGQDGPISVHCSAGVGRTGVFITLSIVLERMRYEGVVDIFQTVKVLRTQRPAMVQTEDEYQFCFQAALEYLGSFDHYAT

fold increase of the interaction with T178B against pairwise expression without T178B: 10 fold
B1: HA-tagged NRX1A (natural protein)
chain: not shown
notes: Neurexin-1-alpha; in pCAG, from Addgene (#58622); also called NRX1A-HA; source: tsA201 cells, transfected, CL-91-solubilised membrane fraction
